From patent US20110263454A1, “Methods of Identifying Functional Characteristics of Promoters, Transcription Modifying Proteins and Transcription Modulating Agents” (Salk Institute for Biological Studies, priority 2008, published 2011)

B1: FXR: Farnesoid X Receptor (NR1H4), cDNA driver (protein, UniProt Q96RI1 1-486, looked up)
Bile acid receptor: MVMQFQGLENPIQISPHCSCTPSGFFMEMMSMKPAKGVLTEQVAGPLGQNLEVEPYSQYSNVQFPQVQPQISSSSYYSNLGFYPQQPEEWYSPGIYELRRMPAETLYQGETEVAEMPVTKKPRMGASAGRIKGDELCVVCGDRASGYHYNALTCEGCKGFFRRSITKNAVYKCKNGGNCVMDMYMRRKCQECRLRKCKEMGMLAECMYTGLLTEIQCKSKRLRKNVKQHADQTVNEDSEGRDLRQVTSTTKSCREKTELTPDQQTLLHFIMDSYNKQRMPQEITNKILKEEFSAEENFLILTEMATNHVQVLVEFTKKLPGFQTLDHEDQIALLKGSAVEAMFLRSAEIFNKKLPSGHSDLLEERIRNSGISDEYITPMFSFYKSIGELKMTQEEYALLTAIVILSPDRQYIKDREAVEKLQEPLLDVLQKLCKIHQPENPQHFACLLGRLTELRTFNHHHAEMLMSWRVNDHKFTPLLCEIWDVQ
B2: RARg: Retinoic acid receptor γ (NR1B3), nuclear hormone receptor cDNA driver (protein, UniProt P13631 1-454, looked up)
Retinoic acid receptor gamma: MATNKERLFAAGALGPGSGYPGAGFPFAFPGALRGSPPFEMLSPSFRGLGQPDLPKEMASLSVETQSTSSEEMVPSSPSPPPPPRVYKPCFVCNDKSSGYHYGVSSCEGCKGFFRRSIQKNMVYTCHRDKNCIINKVTRNRCQYCRLQKCFEVGMSKEAVRNDRNKKKKEVKEEGSPDSYELSPQLEELITKVSKAHQETFPSLCQLGKYTTNSSADHRVQLDLGLWDKFSELATKCIIKIVEFAKRLPGFTGLSIADQITLLKAACLDILMLRICTRYTPEQDTMTFSDGLTLNRTQMHNAGFGPLTDLVFAFAGQLLPLEMDDTETGLLSAICLICGDRMDLEEPEKVDKLQEPLLEALRLYARRRRPSQPYMFPRMLMKITDLRGISTKGAERAITLKMEIPGPMPPLIREMLENPEMFEDDSSQPGPHPNASSEDEVPGGQGKGGLKSPA
B3: PPARd: Peroxisome proliferator activated receptor δ (NR1C2), cDNA driver (protein, UniProt Q03181 1-441, looked up)
Peroxisome …: MEQPQEEAPEVREEEEKEEVAEAEGAPELNGGPQHALPSSSYTDLSRSSSPPSLLDQLQMGCDGASCGSLNMECRVCGDKASGFHYGVHACEGCKGFFRRTIRMKLEYEKCERSCKIQKKNRNKCQYCRFQKCLALGMSHNAIRFGRMPEAEKRKLVAGLTANEGSQYNPQVADLKAFSKHIYNAYLKNFNMTKKKARSILTGKASHTAPFVIHDIETLWQAEKGLVWKQLVNGLPPYKEISVHVFYRCQCTTVETVRELTEFAKSIPSFSSLFLNDQVTLLKYGVHEAIFAMLASIVNKDGLLVANGSGFVTREFLRSLRKPFSDIIEPKFEFAVKFNALELDDSDLALFIAAIILCGDRPGLMNVPRVEAIQDTILRALEFHLQANHPDAQYLFPKLLQKMADLRQLVTEHAQMMQRIKKTETETSLHPLLQEIYKDMY
B4: RARa: Retinoic acid receptor α (NR1B1), nuclear hormone receptor cDNA driver (protein, UniProt P10276 1-462, looked up)
Retinoic acid receptor alpha: MASNSSSCPTPGGGHLNGYPVPPYAFFFPPMLGGLSPPGALTTLQHQLPVSGYSTPSPATIETQSSSSEEIVPSPPSPPPLPRIYKPCFVCQDKSSGYHYGVSACEGCKGFFRRSIQKNMVYTCHRDKNCIINKVTRNRCQYCRLQKCFEVGMSKESVRNDRNKKKKEVPKPECSESYTLTPEVGELIEKVRKAHQETFPALCQLGKYTTNNSSEQRVSLDIDLWDKFSELSTKCIIKTVEFAKQLPGFTTLTIADQITLLKAACLDILILRICTRYTPEQDTMTFSDGLTLNRTQMHNAGFGPLTDLVFAFANQLLPLEMDDAETGLLSAICLICGDRQDLEQPDRVDMLQEPLLEALKVYVRKRRPSRPHMFPKMLMKITDLRSISAKGAERVITLKMEIPGSMPPLIQEMLENSEGLDTLSGQPGGGGRDGGGLAPPPGSCSPSLSPSSNRSSPATHSP
B5: RARb: Retinoic acid receptor β (NR1B2), nuclear hormone receptor cDNA driver (protein, UniProt P10826 1-455, looked up)
Retinoic acid receptor beta: MTTSGHACPVPAVNGHMTHYPATPYPLLFPPVIGGLSLPPLHGLHGHPPPSGCSTPSPATIETQSTSSEELVPSPPSPLPPPRVYKPCFVCQDKSSGYHYGVSACEGCKGFFRRSIQKNMIYTCHRDKNCVINKVTRNRCQYCRLQKCFEVGMSKESVRNDRNKKKKETSKQECTESYEMTAELDDLTEKIRKAHQETFPSLCQLGKYTTNSSADHRVRLDLGLWDKFSELATKCIIKIVEFAKRLPGFTGLTIADQITLLKAACLDILILRICTRYTPEQDTMTFSDGLTLNRTQMHNAGFGPLTDLVFTFANQLLPLEMDDTETGLLSAICLICGDRQDLEEPTKVDKLQEPLLEALKIYIRKRRPSKPHMFPKILMKITDLRSISAKGAERVITLKMEIPGSMPPLIQEMLENSEGHEPLTPSSSGNTAEHSPSISPSSVENSGVSQSPLVQ

Columns and labels:
mAgrp promoter = assay: NHR-promoter luciferase screen, mAgrp promoter; format: cell-based, mouse; conditions: for Results of assays of transcription factor (+/- ligand) with mAgrp: Table 6d, luciferase activity relative to control (control = 1.00); for Luc. act., normalized to lacZ / Normalized Luc. act., normalized to control: mAgrp promoter, HR component with or without ligand; for Normalized Luc. act., normalized to control: relative to control
Outline: (§1)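 CV-1 cells were co-transfected with 50 ng NHR (homodimer or NHR/RXR heterodimer), 100 ng promoter-luciferase construct and 50 ng LacZ. Luciferase was normalized to LacZ and to a no-NHR/no-ligand control.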

mDio1 promoter = assay: NHR-promoter luciferase screen, mDio1 promoter; format: cell-based, mouse; conditions: for Luc. act., normalized to lacZ / Normalized Luc. act., normalized to control: Dio1, HR component without or with its ligand; for mDio1 promoter reporter activity: transcription factor +/- ligand, control = 1.00
Outline: as §1

hMyoD promoter = assay: NHR-promoter luciferase screen, hMyoD promoter; format: cell-based, human; conditions: for Luc. act., normalized to lacZ / Normalized Luc. act., normalized to control: MyoD promoter reporter, co-transfected HR, without or with its ligand; for Normalized Luc. act., normalized to control: relative to control; for luciferase activity normalized to lacZ activity and to a control, hMyoD: hMyoD promoter-luciferase, CV-1 cells, NHR +/- ligand, control = 1.00
Outline: as §1

mAdiponectin promoter = assay: NHR-promoter luciferase screen, mAdiponectin promoter; format: cell-based, mouse; conditions: for Luc. act., normalized to lacZ / Normalized Luc. act., normalized to control: Adiponectin, HR component without or with its ligand; for mAdiponectin promoter reporter activity: transcription factor +/- ligand, control = 1.00
Outline: as §1

Bmal1 promoter = assay: NHR-promoter luciferase screen, Bmal1 promoter; format: cell-based, mouse; conditions: for Luc. act., normalized to lacZ / Normalized Luc. act., normalized to control: Bmal1 promoter, HR component without or with ligand; for mBmal1 promoter reporter activity: transcription factor +/- ligand, control = 1.00
Outline: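 Luciferase activity was measured 48 h after transfection, normalized to LacZ and then to a control lacking NHR or ligand. CV-1 cells carried 100 ng Bmal1 reporter, 50 ng NHR construct and 50 ng LacZ.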

mPer1 promoter = assay: NHR-promoter luciferase screen, mPer1 promoter; format: cell-based, mouse; conditions: for Luc. act., normalized to lacZ / Normalized Luc. act., normalized to control: Per1 promoter reporter, co-transfected HR, with or without its ligand; for Normalized Luc. act., normalized to control: relative to control; for luciferase activity normalized to lacZ activity and to a control, mPer1: mPer1 promoter-luciferase, CV-1 cells, NHR +/- ligand, control = 1.00
Outline: as §1

| Molecule | Results of assays of transcription factor (+/- ligand) with mAgrp (mAgrp promoter) | Luc. act., normalized to lacZ (mAgrp promoter) | Normalized Luc. act., normalized to control (mAgrp promoter) | Luc. act., normalized to lacZ (mDio1 promoter) | Normalized Luc. act., normalized to control (mDio1 promoter) | mDio1 promoter reporter activity (mDio1 promoter) | Luc. act., normalized to lacZ (hMyoD promoter) | Normalized Luc. act., normalized to control (hMyoD promoter) | luciferase activity normalized to lacZ activity and to a control, hMyoD (hMyoD promoter) | Luc. act., normalized to lacZ (mAdiponectin promoter) | Normalized Luc. act., normalized to control (mAdiponectin promoter) | mAdiponectin promoter reporter activity (mAdiponectin promoter) | Luc. act., normalized to lacZ (Bmal1 promoter) | Normalized Luc. act., normalized to control (Bmal1 promoter) | mBmal1 promoter reporter activity (Bmal1 promoter) | Luc. act., normalized to lacZ (mPer1 promoter) | Normalized Luc. act., normalized to control (mPer1 promoter) | luciferase activity normalized to lacZ activity and to a control, mPer1 (mPer1 promoter) |
| --- | --- | --- | --- | --- | --- | --- | --- | --- | --- | --- | --- | --- | --- | --- | --- | --- | --- | --- |
| B1 | 1.14 | 45.1 | 1.1 | 7.2 | 1.6 | 1.62 | 36.5 | 0.6 | 0.58 | 62.6 | 1.0 | 1.00 | 15.6 | 1.0 | 1.00 | 98.0 | 0.7 | 0.68 |
| B2 | 2.06 | 81.9 | 2.1 | 7.2 | 1.6 | 1.61 | 104.5 | 1.6 | 1.65 | 62.6 | 1.0 | 1.00 | 19.1 | 1.2 | 1.22 | 120.3 | 0.8 | 0.84 |
| B3 | 1.32 | 52.4 | 1.3 | 10.0 | 2.2 | 2.23 | 59.6 | 0.9 | 0.94 | 89.4 | 1.4 | 1.42 | 11.2 | 0.7 | 0.72 | 187.6 | 1.3 | 1.30 |
| B4 | 2.05 | 81.1 | 2.0 | 7.4 | 1.7 | 1.66 | 99.3 | 1.6 | 1.57 | 78.6 | 1.3 | 1.25 | 18.9 | 1.2 | 1.21 | 85.4 | 0.6 | 0.59 |
| B5 | 2.27 | 90.2 | 2.3 | 6.8 | 1.5 | 1.54 | 123.5 | 1.9 | 1.95 | 81.2 | 1.3 | 1.29 | 15.6 | 1.0 | 1.00 | 89.3 | 0.6 | 0.62 |
